Results on 30 sequences are retold here after the nanobody polyreactivity screen of Harvey et al. (2022).

This data set can be described thus: yeast display, Sf9 membrane polyspecificity reagent, FACS + sequencing; frameworks hold sequencing errors. In short, it runs like this: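 Sorting gates, low and high (top ~1%), were placed on anti-HA fluorescence to track expression and on streptavidin fluorescence to track reagent binding. A clone's polyreactivity label is taken from the gate it came out of. The reagent was 10% biotinylated, detergent-solubilized Sf9 membrane, applied for 1 hour at 4 °C to galactose-induced yeast display cells.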
“QVQLVESGGGLVQAGGSLRLSCAASGRTFRVYAMGWYRQAPGKERELVAAIRSGGNTNYADSVKGRFTISRDNAKNTVYLQMNSLKPEDTAVYYCAATTYVVASRYVGTLGDDYWGQGTQVTVSS”: the “polyreactivity (PSR sort gate)” value is listed as “high polyreactivity”.

For “QVQLVESGGGLVQAGGSLRLSCAASGRTFRVYAMGWYRQAPGKERELVATITSSGGSTYYADSVKGRFTISRDNAKNTVYLQMNSLKPEDTAVYYCNVSVYYNYDSSYYYWGQGTQVTVSS”, the “polyreactivity (PSR sort gate)” value is “low polyreactivity”.

In the case of “QVQLVESGGGLVQAGGSLRLSCAASGRTFRVYTMGWYRQAPGKERELVAVISGRGGSTSYADSVKGRFTISRDNAKNTVDLQMNSLKPEDTAVYYCAARGRAHWHYDYWGQGTQVTVSS”, the “polyreactivity (PSR sort gate)” value is “high polyreactivity”.

As to “QVQLVESGGGLVQAGGSLRLSCAASGRTFRYKAMGWYRQAPGKERELVAAITYSGGITYYADSVKGRFTISRDNAKNTVYLQMNSLKPEDTAVYYCAADDPYRTTYEYDYWGQGTQVTVSS”, the “polyreactivity (PSR sort gate)” value was “low polyreactivity”.

“QVQLVESGGGLVQAGGSLRLSCAASGRTFRYNAKGSYIQAPGKERELVAAINWNGGSTYYADSVKGSFTISRDNAKNTVYLQMNSLKQEDTAVYYCNADFYHRYDWGQGTQVSVSS”: the “polyreactivity (PSR sort gate)” value is “high polyreactivity”.

For “QVQLVESGGGLVQAGGSLRLSCAASGRTFRYNAMGWYRQAPGKERELVAAISRGANTNYADSVKGRFTISRDNAKNTVYLQMNSLKPADTAVYYCAAVPGYRFYYWGQGTQVTVSS”, the “polyreactivity (PSR sort gate)” value is on record as “high polyreactivity”.

Turning to “QVQLVESGGGLVQAGGSLRLSCAASGRTFRYNAMGWYRQAPGKERELVAAISRGANTNYADSVKGRFTISRDNAKNTVYLQMNSLKPEDTAVYYCAAVPGYRFYYWGQGTQVTVSS”, the “polyreactivity (PSR sort gate)” value is “high polyreactivity”.

Consider “QVQLVESGGGLVQAGGSLRLSCAASGRTFRYNAMGWYRQAPGKERELVASIRRGGSTNYADSVKGRFTISRDNAKNTVYLQMNRLKPEDTAVYYCAAGGYYWGQGTQVTVSS”, for which the “polyreactivity (PSR sort gate)” value is “high polyreactivity”.

Take “QVQLVESGGGLVQAGGSLRLSCAASGRTFRYNAMVWFRQAPGKERELVAAISSGDRTNYADSVKGRFTISRDNAKNTVYLQMNSLKPEDTAVYYCAAPTDSYYEFDYWGQGTQVTVSS”: the “polyreactivity (PSR sort gate)” value is “low polyreactivity”.

In the case of “QVQLVESGGGLVQAGGSLRLSCAASGRTFRYNGMGWYRQAPGKERELVAAITLRDGRTYYADSVKGRITISRDNPKNTVNIQMNSLIPEHTAVYYCALEYWVVNAQGNDYWGQGTQVSVSS”, the “polyreactivity (PSR sort gate)” value is on record as “high polyreactivity”.

“QVQLVESGGGLVQAGGSLRLSCAASGRTFRYNTMGWYRQAPGKERELVAAITKGAASTYYADSVKGRFTISRDNAKNTVYLQMNSLKPEDTAVYYCNAVYSRIVTQKYWGQGTQVTVSS”: the “polyreactivity (PSR sort gate)” value is given as “high polyreactivity”.

As for “QVQLVESGGGLVQAGGSLRLSCAASGRTFRYYAMGLYRQAPGKERELVAAIRSGGTTYYADSVKGRFTISRDNAKNTVYLQMNSLKPEDTAVYYCAADGGKGGIRFGYWGQGTQVTVSS”, the “polyreactivity (PSR sort gate)” value was “high polyreactivity”.

In the case of “QVQLVESGGGLVQAGGSLRLSCAASGRTFRYYAMGWYRQAPGKEREFVAAITSRSSRTYYADSVKGRFTISRDNAKNTVYLQMNSLKPEDTAVYYCNADYRRYPEFDYWGQGTQVTVSS”, the “polyreactivity (PSR sort gate)” value is reported as “high polyreactivity”.

With “QVQLVESGGGLVQAGGSLRLSCAASGRTFRYYAMGWYRQAPGKERELVAAISASGGSTFYADSVKGRFTISRDNAKNTVYLLMNSLKPEDTAVYYCAAYHYSVFPYKQYDYWGQGTQVTVSS”, the “polyreactivity (PSR sort gate)” value was “high polyreactivity”.

In the case of “QVQLVESGGGLVQAGGSLRLSCAASGRTFRYYAMGWYRQAPGKERELVAAISSSGDRTYYADSVKGRFTISRDNAKNTVYLQMNSLKPEDTAVFYCAADRGARGDYWGQGTQVTVSS”, the “polyreactivity (PSR sort gate)” value was “high polyreactivity”.

As to “QVQLVESGGGLVQAGGSLRLSCAASGRTFRYYAMGWYRQAPGKERELVAAISWSGSSTYYADSVKGRFTISRDNAKNTVYLQMNSLKAEDTAVYFCNAKGVRGKYFDYSRVSAYDYWGQGTQVTVSS”, the “polyreactivity (PSR sort gate)” value is “low polyreactivity”.

With “QVQLVESGGGLVQAGGSLRLSCAASGRTFRYYAMGWYRQAPGKERELVAAITISSGSTYYADSVKGRFTISRDNAKNTVYLQMNSLKPEDTAVYYCAATRRYHFDYWGQGTQVTVSS”, the “polyreactivity (PSR sort gate)” value is “high polyreactivity”.

Turning to “QVQLVESGGGLVQAGGSLRLSCAASGRTFRYYAMGWYRQAPGKERELVAAITRSGGSTNYADSVKGRFTISRDNAKNTVYLQMNSLKPEDTAVYYCNREGRSVSGYYYYWGQGTQVTVSS”, the “polyreactivity (PSR sort gate)” value is on record as “high polyreactivity”.

Turning to “QVQLVESGGGLVQAGGSLRLSCAASGRTFRYYAMGWYRQAPGKERELVAVITQSGGRTYYADSVKGRFTISRDNAKNTVYLQMNSLKPEDTAVYYCNAVFPGFFRSSPTYDYWGQGTQVTVSS”, the “polyreactivity (PSR sort gate)” value is “high polyreactivity”.

Turning to “QVQLVESGGGLVQAGGSLRLSCAASGRTFRYYTMGWYRQAPGKEREFVAAISSTGGTYYADSVKGRFTISRDNAKNTVYLLMNSLKPEDTAFYYCAATFIQVVVNVQLYDYDYWGQGTQVTVSS”, the “polyreactivity (PSR sort gate)” value is reported as “low polyreactivity”.

Turning to “QVQLVESGGGLVQAGGSLRLSCAASGRTFRYYTMGWYRQAPGKEREFVAAISSTGGTYYADSVKGRFTISRDNAKNTVYLQMNSLKPEDTAVYYCNADTIYYAGDFRYDYWGQGTQVTVSS”, the “polyreactivity (PSR sort gate)” value is “low polyreactivity”.

Turning to “QVQLVESGGGLVQAGGSLRLSCAASGRTFRYYTMGWYRQAPGKERELVAAISRGGRTYYADSVKGRFTISRDNGKNTVYLQMNSLKPEDTAVYNCAAQLFREYYYWGHGTQVTVSS”, the “polyreactivity (PSR sort gate)” value is reported as “high polyreactivity”.

In the case of “QVQLVESGGGLVQAGGSLRLSCAASGRTFSAYAMGWYRQATGQERELVAAISRSGGSTYYADSVKGRFTISRDNAKNTVYLQMNSLKPEDTAVYYCAAKGGSGLYNWGQGTQVTVSS”, the “polyreactivity (PSR sort gate)” value was “high polyreactivity”.

Turning to “QVQLVESGGGLVQAGGSLRLSCAASGRTFSFYAMGWYRQAPGKERELVAGIDWDDGSTSYADSVKGRFTISRDNAKNTVYLQMNSLKPEDTAVYYCAAGPYAGVDPGDYYYWGQGTQVTVSS”, the “polyreactivity (PSR sort gate)” value was “low polyreactivity”.

As to “QVQLVESGGGLVQAGGSLRLSCAASGRTFSGNAMGWYRQAPGKERELVAGISTSGGSTYYADSVKGRFTISRDNANNTVYVQMNSLKPEDTAVYYCAADRPGSFTTMDYWGQGSQVTVSS”, the “polyreactivity (PSR sort gate)” value is listed as “high polyreactivity”.

For “QVQLVESGGGLVQAGGSLRLSCAASGRTFSGYAMGWYRQAPGKARELVAGITWNGGRTYYADSVKGRFTISRDNAKNTVYLQMNSLKPEDTAVYYCNKLGAVYPKYGYWGQGTQVTVSS”, the “polyreactivity (PSR sort gate)” value is reported as “high polyreactivity”.

In the case of “QVQLVESGGGLVQAGGSLRLSCAASGRTFSGYAMGWYRQAPGKEREFVAAITSSGSSTYYADSVKWRFTISRVIAKNTVYLQMNSLKPEDTAVYYCAATPQAHSERYYYQRKYDYWGQGTQVTVSS”, the “polyreactivity (PSR sort gate)” value is “low polyreactivity”.

As to “QVQLVESGGGLVQAGGSLRLSCAASGRTFSGYAMGWYRQAPGKERELVAAISNSGGRTYYADSVKGRFTISRDNAKNTDYLQMNSLKPEDTAVYYSNAVSYWRYDYWGQGTQVTVSS”, the “polyreactivity (PSR sort gate)” value is “high polyreactivity”.

Regarding “QVQLVESGGGLVQAGGSLRLSCAASGRTFSGYAMGWYRQAPGKERELVAAITSSGSSTYYADSVKGRFTISRDKAKNTVYLQMNCLKPEDTAVYYCAATPQAHSERYYSQRKYDYWGQGTQVTVSS”, the “polyreactivity (PSR sort gate)” value is recorded as “low polyreactivity”.

For the sequence “QVQLVESGGGLVQAGGSLRLSCAASGRTFSGYAMGWYRQAPGKERELVAAITSSGSSTYYADSVKGRFTISRDNAKNTVYLQMNSLKPEDTAVYYCAATPQAHSERYYYQRKYDYWGQGTQVTVSS”, the “polyreactivity (PSR sort gate)” value is “low polyreactivity”.
